From PMC10099707

Biological target: HDAC4 (mouse (endogenous in hippocampal tissue)) (UniProt Q6NZM9)
Assay: co-IP

Sequence of UniProt Q6NZM9 (Q6NZM9 whole entry): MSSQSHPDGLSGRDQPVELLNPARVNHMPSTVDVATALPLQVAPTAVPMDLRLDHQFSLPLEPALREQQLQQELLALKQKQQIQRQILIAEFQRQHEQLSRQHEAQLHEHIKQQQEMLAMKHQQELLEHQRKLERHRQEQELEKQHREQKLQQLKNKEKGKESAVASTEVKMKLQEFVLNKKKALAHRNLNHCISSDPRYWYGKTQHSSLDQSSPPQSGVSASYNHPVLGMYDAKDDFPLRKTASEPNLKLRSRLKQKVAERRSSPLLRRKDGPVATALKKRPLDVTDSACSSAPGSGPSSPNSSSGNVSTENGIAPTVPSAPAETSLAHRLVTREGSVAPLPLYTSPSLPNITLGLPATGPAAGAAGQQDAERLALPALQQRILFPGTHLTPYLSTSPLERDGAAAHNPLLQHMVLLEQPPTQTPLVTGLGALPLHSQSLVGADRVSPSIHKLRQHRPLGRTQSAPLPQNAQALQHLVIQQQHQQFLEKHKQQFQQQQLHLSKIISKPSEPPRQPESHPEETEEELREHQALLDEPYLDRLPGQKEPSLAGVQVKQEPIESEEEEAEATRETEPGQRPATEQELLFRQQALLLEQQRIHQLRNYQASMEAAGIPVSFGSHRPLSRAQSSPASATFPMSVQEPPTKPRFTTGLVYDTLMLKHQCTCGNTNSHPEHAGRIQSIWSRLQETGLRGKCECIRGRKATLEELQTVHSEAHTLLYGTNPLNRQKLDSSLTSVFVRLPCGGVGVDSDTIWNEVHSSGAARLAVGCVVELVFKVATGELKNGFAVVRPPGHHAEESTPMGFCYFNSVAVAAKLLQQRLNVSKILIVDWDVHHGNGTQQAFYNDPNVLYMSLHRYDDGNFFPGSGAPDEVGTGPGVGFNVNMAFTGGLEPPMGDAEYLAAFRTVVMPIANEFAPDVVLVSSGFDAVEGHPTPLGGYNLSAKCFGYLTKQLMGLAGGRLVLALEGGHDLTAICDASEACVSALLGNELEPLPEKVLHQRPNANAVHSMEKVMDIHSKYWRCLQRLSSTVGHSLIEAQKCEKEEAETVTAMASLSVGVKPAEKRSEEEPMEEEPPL

Ca2+/calmodulin‐dependent protein kinase II (CaMKII) (from UniProt P11798 1-478) (enzyme)
fold change AD vs WT of the co-IP band ratio CaMKII/HDAC4 (fold (AD vs WT)): 0.61
